Here are results for 17 molecules from patent US20250319190A1, “APOE LIPOPROTEIN SYSTEMS” (Kisbee Therapeutics, Inc., priority 2022, published 2025).

As usually defined, the Kd is the constant that tells how readily two partners part at equilibrium. Read a low Kd as higher affinity.

Data set [1] is described as follows: DMPC liposome clearance by lipid-free apolipoproteins (A325). It counts as biochemical. Particulars: lipid-free apolipoprotein, protein:lipid 1:75, A325 over 90 minutes. The protocol: To assess the ability of lipid-free apolipoproteins to remodel DMPC liposomes, aliquots of purified polypeptide were allowed to thaw at 2-8° C. Aqueous 0.5 M tris(2-carboxyethyl)phosphine (TCEP) solution was then added to the polypeptide solution (1.5 μL per 200 μg polypeptide) to reduce any disulfide bonds that formed during storage. After incubation for >30 minutes at 2-8° C., the mixture was buffer exchanged into PBS (2 mM KH2PO4, 10 mM Na2HPO4, 140 mM NaCl, 3 mM KCl, pH 7.4) using a spin desalting column (ThermoFisher) following the manufacturer's instructions. After buffer exchange, the concentration of the polypeptide was determined by measuring the sample's absorbance at 280 nm (A280). In parallel, a mixture of DMPC (1,2-dimyristoyl-sn-glycero-3-phosphocholine) in detergent-free lipid buffer (20 mM Tris HCl, 100 mM NaCl, pH 7.4) was prepared from neat DMPC powder and adjusted to about 10 mM.
The polypeptide and DMPC solutions were combined in technical duplicate or triplicate in a UV-transparent 96-well plate (Corning) such that the molar ratio of protein:lipid was 1:75. The absorbance of the wells at 325 nm was measured every minute for 90 minutes.
Polypeptides PP124 (SEQ ID NO: 876), PP125 (SEQ ID NO: 877), PP126 (SEQ ID NO: 878), PP127 (SEQ ID NO: 879), PP128 (SEQ ID NO: 880), and PP129 (SEQ ID NO: 881) were expressed, harvested, and purified using the methods described herein (see, e.g., Example 1). The ability of these novel apolipoprotein variants to interact with and remodel DMPC liposomes was assessed to serve as a simplified proxy of the disc assembly process. The rate at which apolipoproteins achieve such remodeling is related to the facility with which they form the lipoprotein systems described in the present invention.

Data set [2] deals with cellular model for Huntington's disease. As to conditions: in vitro treatment; cited from earlier work.
Data set [3] concerns mouse model of tauopathy with Parkinsonism. As to conditions: trehalose consumption; cited from earlier work.
Another data set concerns NPC1 models. Particulars: cited from earlier work.
In a further data set the test system is NPC1. As to conditions: administered directly to the CNS; cited from earlier work.
Data set [4] addresses human low-density lipoprotein receptor (LDLR) protein (human, UniProt P01130 22-788, limits assumed). The data set is described as follows: SPR (Biacore 4000), human LDLR captured on a Protein A chip, lipoprotein as analyte, 1:1 model fit. The protocol: (§1) A surface plasmon resonance (SPR) method was developed to assess the binding response between the lipoprotein samples and the low-density lipoprotein receptor (LDLR). This interaction is relevant to the discs because the LDLR/APOE pathway plays a pivotal role in cholesterol homeostasis and lipid metabolism. Experiments were performed on a Biacore 4000 with human LDLR protein captured on a Protein A chip. For the binding studies, lipoprotein samples were diluted and tested in a 3-fold dilution series. Samples were injected for 2-3 minutes at 30 μL/min and the dissociation phase was monitored for 5-10 minutes. Response data were processed by subtracting the data from a reference surface (i.e., without receptor captured) and a buffer injection. The processed data were globally fit to a 1:1 interaction model to extract estimates of the binding constants.
Target sequence in this assay (P01130 22-788 limits assumed): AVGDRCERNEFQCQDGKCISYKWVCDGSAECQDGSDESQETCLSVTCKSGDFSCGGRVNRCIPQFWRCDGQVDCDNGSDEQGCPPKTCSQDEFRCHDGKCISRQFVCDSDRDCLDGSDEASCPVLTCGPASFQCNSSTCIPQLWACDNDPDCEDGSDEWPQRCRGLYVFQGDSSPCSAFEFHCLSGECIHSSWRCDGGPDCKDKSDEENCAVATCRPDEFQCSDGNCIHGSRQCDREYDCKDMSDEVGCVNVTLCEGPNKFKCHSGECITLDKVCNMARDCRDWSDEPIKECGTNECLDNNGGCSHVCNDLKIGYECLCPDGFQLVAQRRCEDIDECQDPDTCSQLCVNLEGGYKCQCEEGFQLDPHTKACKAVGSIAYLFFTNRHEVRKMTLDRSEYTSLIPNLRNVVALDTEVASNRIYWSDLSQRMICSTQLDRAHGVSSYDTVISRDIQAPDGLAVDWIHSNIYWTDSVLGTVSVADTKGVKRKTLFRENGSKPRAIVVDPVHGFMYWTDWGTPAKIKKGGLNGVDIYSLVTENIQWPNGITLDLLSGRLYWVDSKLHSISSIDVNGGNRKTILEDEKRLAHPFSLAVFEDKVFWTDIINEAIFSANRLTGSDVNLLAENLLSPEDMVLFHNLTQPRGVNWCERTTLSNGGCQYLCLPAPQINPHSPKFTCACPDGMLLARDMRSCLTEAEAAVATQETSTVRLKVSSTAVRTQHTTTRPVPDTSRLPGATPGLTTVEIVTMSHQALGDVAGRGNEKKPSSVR
For orientation: SPR reads the build-up and loss of mass on a sensor chip optically.

In data set [5] the target is T1, human low-density lipoprotein receptor (LDLR) protein (human, UniProt P01130 22-788, limits assumed).
T1 construct: The receptor was captured on a Protein A chip in the SPR assay
The data set is described as follows: SPR (Biacore 4000), human LDLR captured on Protein A chip. The protocol:
as §1
T1 sequence (P01130 22-788 limits assumed): as above

Data set [6] relates to experimental models of stroke, global brain ischemia, prion diseases, AD, PD, HD, ALS. Particulars: intracerebral administration; cited from earlier work.

Where a chain is given by its changes, count along the chain named.

Take “PP1: natural human APOE isoform APOE2; SEQ ID NO: 267, 268 in b698”: the “Rate of DMPC clearance Ka” value in data set [1] was 0.0032 s⁻¹. Regarding `OC[C@H]1O[C@H](O[C@H]2O[C@H](CO)[C@@H](O)[C@H](O)[C@H]2O)[C@H](O)[C@@H](O)[C@@H]1O` [trehalose], the “polyglutamine aggregates and cell survival” value in data set [2] is reported as “decreased polyglutamine aggregates and/or improved cell survival”. Besides, in data set [3], the anxiety-related behavior entry is reported as “Reduced anxiety-related behavior”, the motor function result was “improved motor function” and the tau pathology result is “decreased tau pathology”. For the molecule 2-hydroxypropyl-β-cyclodextrins [HPβCD], the “crossing of the blood-brain barrier” value in the data set on NPC1 models (mouse, in vivo) is “does not cross the blood-brain barrier in significant amounts”. The CNS manifestations result in the data set on NPC1 models (subcutaneously or intraperitoneally, very high doses) is given as “can moderately impact CNS manifestations”. Besides, the efficacy result in the data set with NPC1 is “far greater HPβCD efficacy at much lower doses”.

In the case of “PP2: natural human APOE isoform APOE 3; SEQ ID NO: 268, 267 in b698”, in data set [1], the “Rate of DMPC clearance Ka” value worked out at 0.0145 s⁻¹.

B1: LPS1: lipoprotein system of PP9 and POPC, apolipoprotein:lipid 1:105 (other)
chain: KVEQAVETEPEPELRQQTEWQSGQRWELALGRFWDYLRWVQTLSEQVQEELLSSQVTQELRALMDETMKELKAYKSELEEQLTPVAEETRARLSKELQAAQARLGADMEDVCGRLVQYRGEVQAMLGQSTEELRVRLASHLRKLRKRLLRDADDLQKRLAVYQAGAREGAERGLSAIRERLGPLVEQGRVRAATVGSLAGQPLQERAQAWGERLRARMEEMGSRTRDRLDEVKEQVAAKLEEQAQQIRLQAEAFQARLKPLVEDMQRQWAGLVEKVQAAVGTSAAPVPSDNH
notes: Discoidal lipoprotein particle with POPC; Engineered truncation variant of APOE3; also called PP9/POPC
In data set [4], B1 yielded a dissociation constant Kd of around 0.33 nM.

B2: PP125: novel truncated apolipoprotein variant SEQ ID NO: 877 (protein)
chain: B1 chain with R136S, V236E
Regarding B2, in data set [1], the “Rate of DMPC clearance Ka” value came out at 0.0247 s⁻¹.

B3: PP124: novel truncated apolipoprotein variant SEQ ID NO: 876 (protein)
chain: B1 chain with V236E
Consider B3, for which the “Rate of DMPC clearance Ka” value in data set [1] was 0.0221 s⁻¹.

B4: LPS1 lipoprotein system (PP9 with POPC, polypeptide:lipid 1:105) (other)
chain: B1 chain
notes: Discoidal lipoprotein particle with POPC at 1:105 mol/mol; also called PP9/POPC
As for B4, the “fold difference in KD compared to POPC lipoproteins with PP2 or PP28” value (shortened to “fold difference in KD”) in data set [5] is at most 5 fold.

B5: LPS3: lipoprotein system of PP11 and POPC, apolipoprotein:lipid 1:90 (other)
chain: KVEQAVETEPEPELRQQTEWQSGQRWELALGRFWDYLRWVQTLSEQVQEELLSSQVTQELRALMDETMKELKAYKSELEEQLTPVAEETRARLSKELQAAQARLGADMEDVCGRLVQYRGEVQAMLGQSTEELRVRLASHLRKLRKRLLRDADDLQKRLAVYQAGAREGAERGLSAIRERLGDRLDEVKEQVAAKLEEQAQQIRLQAEAFQARLKPLVEDMQRQWAGLVEKVQAAVGTSAAPVPSDNH
notes: Discoidal lipoprotein particle with POPC; Engineered truncation variant of APOE3; also called PP11/POPC
The molecule B5 registered a Kd in data set [4] of around 0.125 nM.

B6: PP129: novel truncated apolipoprotein variant SEQ ID NO: 881 (protein)
chain: B5 chain with R136S, V192E, L228Q
In the case of B6, the “Rate of DMPC clearance Ka” value in data set [1] amounted to 0.0068 s⁻¹.

B7: PP126: novel truncated apolipoprotein variant SEQ ID NO: 878 (protein)
chain: B5 chain
In the case of B7, in data set [1], the “Rate of DMPC clearance Ka” value is 0.0383 s⁻¹.

B8: LPS3 lipoprotein system (PP11 with POPC, polypeptide:lipid 1:90) (other)
chain: B5 chain
notes: Discoidal lipoprotein particle with POPC at 1:90 mol/mol; also called PP11/POPC
Turning to B8, the “fold difference in KD” value in data set [5] is at most 5 fold.

B9: PP127: novel truncated apolipoprotein variant SEQ ID NO: 879 (protein)
chain: B5 chain with V192E
Turning to B9, the “Rate of DMPC clearance Ka” value in data set [1] is 0.0058 s⁻¹.

B10: PP128: novel truncated apolipoprotein variant SEQ ID NO: 880 (protein)
chain: B5 chain with R136S, V192E
For B10, the “Rate of DMPC clearance Ka” value in data set [1] was found to be 0.0149 s⁻¹.

B11: BDNF: brain-derived neurotrophic factor, a neurotherapeutic growth factor (protein, UniProt P23560 19-247, looked up)
Neurotrophic factor BDNF …: APMKEANIRGQGGLAYPGVRTHGTLESVNGPKAGSRGLTSLADTFEHVIEELLDEDQKVRPNEENNKDADLYTSRVMLSSQVPLEPPLLFLLEEYKNYLDAANMSMRVRRHSDPARRGELSVCDSISEWVTAADKKTAVDMSGGTVTVLEKVPVSKGQLKQYFYETKCNPMGYTKEGCRGIDKRHWNSQCRTTQSYVRALTMDSKKRIGWRFIRIDTSCVCTLTIKRGR
Turning to B11, the neuroprotection result in data set [6] is reported as “neuroprotective”.

B12: LPS2: lipoprotein system of PP10 and POPC, apolipoprotein:lipid 1:100 (other)
chain: KVEQAVETEPEPELRQQTEWQSGQRWELALGRFWDYLRWVQTLSEQVQEELLSSQVTQELRALMDETMKELKAYKSELEEQLTPVAEETRARLSKELQAAQARLGADMEDVCGRLVQYRGEVQAMLGQSTEELRVRLASHLRKLRKRLLRDADDLQKRLAVYQAGAREGAERGLSAIRERLGDRLDEVKEQVAEVRAKLEEQAQQIRLQAEAFQARLKSWFEPLVEDMQRQWAGLVEKVQAAVGTSAAPVPSDNH
notes: Discoidal lipoprotein particle with POPC; Engineered truncation variant of APOE3; also called PP10/POPC
B12: the Kd in data set [4] is around 0.385 nM.

B13: LPS2 lipoprotein system (PP10 with POPC, polypeptide:lipid 1:100) (other)
chain: B12 chain
notes: Discoidal lipoprotein particle with POPC at 1:100 mol/mol; also called PP10/POPC
In the case of B13, the “fold difference in KD” value in data set [5] was at most 5 fold.
